Results on 47 variants are retold here after the Human Domainome abundance scans (Beltran et al. 2025).

± gives the uncertainty stated by the source.

B1: Zinc finger homeobox protein 4, residues 2562 to 2617; numbered along this chain, Q86UP3 (parent)
chain: RLRTTITPEQLEILYEKYLLDSNPTRKMLDHIAREVGLKKRVVQVWFQNTRARERK

The variants in this series derive from B1. Description: abundance fitness (aPCA) (normalised: wild type 0, dead -1); higher = more abundant; growth selection in yeast, the domain comes from the species named. To be noted: Homo sapiens.
For RLRTTITPEQLEILYEKYLLDSNPTRKMLDHIAREVGIKKRVVQVWFQNTRARERK, the abundance fitness was -0.025 ± 0.26. Regarding RLRTTITPEQLEILYEKYLLDSNPTRKMLDHIAREVGAKKRVVQVWFQNTRARERK, the abundance fitness is -0.508 ± 0.073. Take RLRTTITPEQLEILYEKYLLDSNPTRKMLDHIAREVGDKKRVVQVWFQNTRARERK: the abundance fitness was -0.718 ± 0.27. With RLRTTITPEQLEILYEKYLLDSNPTRKMLDHIAREVGRKKRVVQVWFQNTRARERK, the abundance fitness is -0.818 ± 0.07. For RLRTTITPEQLEILYEKYLLDSNPTRKMLDHIAREVGMKKRVVQVWFQNTRARERK, the abundance fitness is -0.132 ± 0.072. RLRTTITPEQLEILYEKYLLDSNPTRKMLDHIAREVGSKKRVVQVWFQNTRARERK: the abundance fitness is -0.846 ± 0.091.

On to RLRTTITPEQLEILYEKYLLDSNPTRKMLDHIAREVGCKKRVVQVWFQNTRARERK, for which the abundance fitness was -0.301 ± 0.12. As to RLRTTITPEQLEILYEKYLLDSNPTRKMLDHIAREVGEKKRVVQVWFQNTRARERK, the abundance fitness was -0.488 ± 0.16. For RLRTTITPEQLEILYEKYLLDSNPTRKMLDHIAREVGGKKRVVQVWFQNTRARERK, the abundance fitness was -0.915 ± 0.08. For RLRTTITPEQLEILYEKYLLDSNPTRKMLDHIAREVGKKKRVVQVWFQNTRARERK, the abundance fitness was -0.254 ± 0.12. In the case of RLRTTITPEQLEILYEKYLLDSNPTRKMLDHIAREVGQKKRVVQVWFQNTRARERK, the abundance fitness was -0.755 ± 0.13. Under RLRTTITPEQLEILYEKYLLDSNPTRKMLDHIAREVGPKKRVVQVWFQNTRARERK stands -0.787 ± 0.12; under RLRTTITPEQLEILYEKYLLDSNPTRKMLDHIAREVGLWKRVVQVWFQNTRARERK, -0.779 ± 0.17. Consider RLRTTITPEQLEILYEKYLLDSNPTRKMLDHIAREVGLSKRVVQVWFQNTRARERK, for which the abundance fitness turned out to be 0.278 ± 0.096.

On to RLRTTITPEQLEILYEKYLLDSNPTRKMLDHIAREVGLLKRVVQVWFQNTRARERK, for which the abundance fitness is 0.072 ± 0.093. For RLRTTITPEQLEILYEKYLLDSNPTRKMLDHIAREVGLHKRVVQVWFQNTRARERK, the abundance fitness was -0.072 ± 0.085. Under RLRTTITPEQLEILYEKYLLDSNPTRKMLDHIAREVGLVKRVVQVWFQNTRARERK stands -0.01 ± 0.096. For RLRTTITPEQLEILYEKYLLDSNPTRKMLDHIAREVGLQKRVVQVWFQNTRARERK, the abundance fitness stood at 0.032 ± 0.14. Consider RLRTTITPEQLEILYEKYLLDSNPTRKMLDHIAREVGLPKRVVQVWFQNTRARERK, for which the abundance fitness was 0.196 ± 0.12. On to RLRTTITPEQLEILYEKYLLDSNPTRKMLDHIAREVGLDKRVVQVWFQNTRARERK, for which the abundance fitness was 0.11 ± 0.12. Consider RLRTTITPEQLEILYEKYLLDSNPTRKMLDHIAREVGLTKRVVQVWFQNTRARERK, for which the abundance fitness was found to be 0.284 ± 0.091. For the variant RLRTTITPEQLEILYEKYLLDSNPTRKMLDHIAREVGLIKRVVQVWFQNTRARERK, the abundance fitness is -0.784 ± 0.24. Consider RLRTTITPEQLEILYEKYLLDSNPTRKMLDHIAREVGLGKRVVQVWFQNTRARERK, for which the abundance fitness was found to be 0.117 ± 0.047. In the case of RLRTTITPEQLEILYEKYLLDSNPTRKMLDHIAREVGLMKRVVQVWFQNTRARERK, the abundance fitness was -0.405 ± 0.26.

Take RLRTTITPEQLEILYEKYLLDSNPTRKMLDHIAREVGLNKRVVQVWFQNTRARERK: the abundance fitness was -0.168 ± 0.29. Take RLRTTITPEQLEILYEKYLLDSNPTRKMLDHIAREVGLRKRVVQVWFQNTRARERK: the abundance fitness is -0.126 ± 0.06. Regarding RLRTTITPEQLEILYEKYLLDSNPTRKMLDHIAREVGLYKRVVQVWFQNTRARERK, the abundance fitness came out at 0.406 ± 0.14. For the variant RLRTTITPEQLEILYEKYLLDSNPTRKMLDHIAREVGLAKRVVQVWFQNTRARERK, the abundance fitness was found to be 0.234 ± 0.071. Turning to RLRTTITPEQLEILYEKYLLDSNPTRKMLDHIAREVGLCKRVVQVWFQNTRARERK, the abundance fitness was 0.142 ± 0.12. Take RLRTTITPEQLEILYEKYLLDSNPTRKMLDHIAREVGLFKRVVQVWFQNTRARERK: the abundance fitness is -0.862 ± 0.39. Take RLRTTITPEQLEILYEKYLLDSNPTRKMLDHIAREVGLKWRVVQVWFQNTRARERK: the abundance fitness is -0.002 ± 0.087.

With RLRTTITPEQLEILYEKYLLDSNPTRKMLDHIAREVGLKDRVVQVWFQNTRARERK, the abundance fitness is -0.097 ± 0.19. Next, RLRTTITPEQLEILYEKYLLDSNPTRKMLDHIAREVGLKPRVVQVWFQNTRARERK: 0.162 ± 0.1; RLRTTITPEQLEILYEKYLLDSNPTRKMLDHIAREVGLKMRVVQVWFQNTRARERK: 0.243 ± 0.099. With RLRTTITPEQLEILYEKYLLDSNPTRKMLDHIAREVGLKCRVVQVWFQNTRARERK, the abundance fitness was determined as 0.108 ± 0.12. Under RLRTTITPEQLEILYEKYLLDSNPTRKMLDHIAREVGLKTRVVQVWFQNTRARERK stands 0.199 ± 0.074; under RLRTTITPEQLEILYEKYLLDSNPTRKMLDHIAREVGLKERVVQVWFQNTRARERK, 0.361 ± 0.085; under RLRTTITPEQLEILYEKYLLDSNPTRKMLDHIAREVGLKARVVQVWFQNTRARERK, 0.163 ± 0.087. Regarding RLRTTITPEQLEILYEKYLLDSNPTRKMLDHIAREVGLKRRVVQVWFQNTRARERK, the abundance fitness was 0.057 ± 0.086. Under RLRTTITPEQLEILYEKYLLDSNPTRKMLDHIAREVGLKHRVVQVWFQNTRARERK stands -0.218 ± 0.23; under RLRTTITPEQLEILYEKYLLDSNPTRKMLDHIAREVGLKLRVVQVWFQNTRARERK, 0.264 ± 0.065; under RLRTTITPEQLEILYEKYLLDSNPTRKMLDHIAREVGLKYRVVQVWFQNTRARERK, 0.518 ± 0.12.

RLRTTITPEQLEILYEKYLLDSNPTRKMLDHIAREVGLKGRVVQVWFQNTRARERK: the abundance fitness was found to be 0.103 ± 0.073. Consider RLRTTITPEQLEILYEKYLLDSNPTRKMLDHIAREVGLKSRVVQVWFQNTRARERK, for which the abundance fitness came out at 0.218 ± 0.049.

Turning to RLRTTITPEQLEILYEKYLLDSNPTRKMLDHIAREVGLKIRVVQVWFQNTRARERK, the abundance fitness is 0.143 ± 0.12. As to RLRTTITPEQLEILYEKYLLDSNPTRKMLDHIAREVGLKVRVVQVWFQNTRARERK, the abundance fitness turned out to be 0.264 ± 0.052. Take RLRTTITPEQLEILYEKYLLDSNPTRKMLDHIAREVGLKFRVVQVWFQNTRARERK: the abundance fitness worked out at 0.15 ± 0.13.
